Results reported in patent publication US20200283478A1 (Genentech, published 2020).
Values joined by “and” are separate entries in the source; they are usually repeats but may differ in a detail not shown here. Equal values may be shown once. Bridge positions count the residues as written; N and C are the ends. Square brackets hold non-standard residues; d marks the D form. Cit = NC(=O)NCCC[C@H](N)C(=O)O; Aoc = NCCCCCCCC(=O)O; Ava = NCCCCC(=O)O

Assays:
[1] = target: T1, His-tagged, full-length PCSK9 (human, UniProt Q8NBP7 31-692); experiment: TR-FRET competition (PCSK9/EGF(A) assay); competitor EGF(A)-Fc;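 note: proximity signal from anti-His APC on PCSK9 paired with anti-Fc europium on the Fc ligand, read as normalized TR-FRET ratio across compound dilutions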
T1 construct: secreted PCSK9 is autocatalytically cleaved into prodomain and catalytic domain + CRD (from S153), which stay associated; also called His-PCSK9; proprotein convertase subtilisin/kexin type 9; not shown: His tag
T1 sequence (Q8NBP7 31-692 limits assumed): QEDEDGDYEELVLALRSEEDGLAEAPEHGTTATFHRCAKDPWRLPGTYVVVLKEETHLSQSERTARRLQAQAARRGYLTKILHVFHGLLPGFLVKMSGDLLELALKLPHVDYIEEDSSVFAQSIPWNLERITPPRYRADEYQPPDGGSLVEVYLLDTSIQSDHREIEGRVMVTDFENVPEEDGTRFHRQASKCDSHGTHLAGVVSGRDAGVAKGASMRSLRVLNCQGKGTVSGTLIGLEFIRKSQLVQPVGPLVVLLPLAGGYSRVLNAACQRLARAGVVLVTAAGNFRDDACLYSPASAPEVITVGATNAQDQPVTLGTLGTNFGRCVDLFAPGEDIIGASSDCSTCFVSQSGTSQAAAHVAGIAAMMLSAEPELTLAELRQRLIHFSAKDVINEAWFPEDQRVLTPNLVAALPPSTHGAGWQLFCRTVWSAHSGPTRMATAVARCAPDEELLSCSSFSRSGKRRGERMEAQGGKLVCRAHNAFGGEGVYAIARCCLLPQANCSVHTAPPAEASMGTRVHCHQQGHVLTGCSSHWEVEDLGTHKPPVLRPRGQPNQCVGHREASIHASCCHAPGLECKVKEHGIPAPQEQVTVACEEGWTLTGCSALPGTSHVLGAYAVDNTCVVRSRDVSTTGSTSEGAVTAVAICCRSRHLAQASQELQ

His-tagged PCSK9Δhelix = target: T2, His-tagged PCSK9Δhelix (human, UniProt Q8NBP7 31-152; Q8NBP7 168-692); experiment: TR-FRET competition (PCSK9Δhelix/Ab20 assay); competitor Ab20
T2 construct: Human PCSK9 M1-Q692 with an engineered TEV site, cut by TEV protease; new N-terminus of the catalytic domain is S-A168; also called His-PCSK9Δhelix; not shown: His tag
T2 sequence (Q8NBP7 31-152, stated change not applied, chain 1 of 2): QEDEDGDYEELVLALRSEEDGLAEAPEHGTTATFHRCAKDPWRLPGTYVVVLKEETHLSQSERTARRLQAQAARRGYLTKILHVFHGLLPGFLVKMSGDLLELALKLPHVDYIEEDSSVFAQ
T2 sequence (Q8NBP7 other isoform, or with tags, fused parts or gaps mutant, chain 2 of 2): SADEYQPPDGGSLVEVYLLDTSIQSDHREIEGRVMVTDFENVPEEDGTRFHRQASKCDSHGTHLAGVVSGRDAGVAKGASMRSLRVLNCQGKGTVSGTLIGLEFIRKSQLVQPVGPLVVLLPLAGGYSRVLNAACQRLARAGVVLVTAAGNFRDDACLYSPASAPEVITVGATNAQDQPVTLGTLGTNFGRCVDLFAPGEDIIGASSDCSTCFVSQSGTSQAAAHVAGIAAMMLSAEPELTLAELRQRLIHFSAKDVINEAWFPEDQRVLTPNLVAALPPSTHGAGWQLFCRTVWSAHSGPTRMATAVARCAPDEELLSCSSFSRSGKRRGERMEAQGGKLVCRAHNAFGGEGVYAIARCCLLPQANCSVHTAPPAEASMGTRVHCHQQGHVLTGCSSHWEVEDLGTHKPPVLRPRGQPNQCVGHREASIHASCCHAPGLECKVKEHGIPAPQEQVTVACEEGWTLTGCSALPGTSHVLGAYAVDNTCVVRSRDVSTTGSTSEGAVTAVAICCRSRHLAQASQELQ

B1: Compound 36 (Ac-SG-CFIPWNLQ(Cit)IGLPC-NH2) (peptide)
peptide: Ac-SGCFIPWNLQ[Cit]IGLPC-NH2
modifications: disulfide 3-16
SMILES: CC[C@H](C)[C@@H]1NC(=O)[C@H](CCCNC(N)=O)NC(=O)[C@H](CCC(N)=O)NC(=O)[C@H](CC(C)C)NC(=O)[C@H](CC(N)=O)NC(=O)[C@H](Cc2c[nH]c3ccccc23)NC(=O)[C@@H]2CCCN2C(=O)[C@H]([C@@H](C)CC)NC(=O)[C@H](Cc2ccccc2)NC(=O)[C@@H](NC(=O)CNC(=O)[C@H](CO)NC(C)=O)CSSC[C@@H](C(N)=O)NC(=O)[C@@H]2CCCN2C(=O)[C@H](CC(C)C)NC(=O)CNC1=O
- IC50 [1]: > 50 µM

B2: Compound 64 (Ac-DCLWNLKRIGSQCEY-NH2) (peptide)
peptide: Ac-DCLWNLKRIGSQCEY-NH2
modifications: disulfide 2-13
SMILES: CC[C@H](C)[C@@H]1NC(=O)[C@H](CCCNC(=N)N)NC(=O)[C@H](CCCCN)NC(=O)[C@H](CC(C)C)NC(=O)[C@H](CC(N)=O)NC(=O)[C@H](Cc2c[nH]c3ccccc23)NC(=O)[C@H](CC(C)C)NC(=O)[C@@H](NC(=O)[C@H](CC(=O)O)NC(C)=O)CSSC[C@@H](C(=O)N[C@@H](CCC(=O)O)C(=O)N[C@@H](Cc2ccc(O)cc2)C(N)=O)NC(=O)[C@H](CCC(N)=O)NC(=O)[C@H](CO)NC(=O)CNC1=O
- IC50 [1]: > 50 µM

B3: Compound 21 (Ac-CWNLKRIGSQGC-NH2) (peptide)
peptide: Ac-CWNLKRIGSQGC-NH2
modifications: disulfide 1-12
SMILES: CC[C@H](C)[C@@H]1NC(=O)[C@H](CCCNC(=N)N)NC(=O)[C@H](CCCCN)NC(=O)[C@H](CC(C)C)NC(=O)[C@H](CC(N)=O)NC(=O)[C@H](Cc2c[nH]c3ccccc23)NC(=O)[C@@H](NC(C)=O)CSSC[C@@H](C(N)=O)NC(=O)CNC(=O)[C@H](CCC(N)=O)NC(=O)[C@H](CO)NC(=O)CNC1=O
- IC50 [1]: > 50 µM

B4: Compound 29 (Ac-SG-CFIPWNLQRIGLLC-NH2) (peptide)
peptide: Ac-SGCFIPWNLQRIGLLC-NH2
modifications: disulfide 3-16
SMILES: CC[C@H](C)[C@@H]1NC(=O)[C@H](CCCNC(=N)N)NC(=O)[C@H](CCC(N)=O)NC(=O)[C@H](CC(C)C)NC(=O)[C@H](CC(N)=O)NC(=O)[C@H](Cc2c[nH]c3ccccc23)NC(=O)[C@@H]2CCCN2C(=O)[C@H]([C@@H](C)CC)NC(=O)[C@H](Cc2ccccc2)NC(=O)[C@@H](NC(=O)CNC(=O)[C@H](CO)NC(C)=O)CSSC[C@@H](C(N)=O)NC(=O)[C@H](CC(C)C)NC(=O)[C@H](CC(C)C)NC(=O)CNC1=O
- IC50 [1]: > 50 µM
- IC50 (His-tagged PCSK9Δhelix): 1.9 µM

B5: Compound 32 (Ac-CRLPWNLQRIGLPC-NH2) (peptide)
peptide: Ac-CRLPWNLQRIGLPC-NH2
modifications: disulfide 1-14
SMILES: CC[C@H](C)[C@@H]1NC(=O)[C@H](CCCNC(=N)N)NC(=O)[C@H](CCC(N)=O)NC(=O)[C@H](CC(C)C)NC(=O)[C@H](CC(N)=O)NC(=O)[C@H](Cc2c[nH]c3ccccc23)NC(=O)[C@@H]2CCCN2C(=O)[C@H](CC(C)C)NC(=O)[C@H](CCCNC(=N)N)NC(=O)[C@@H](NC(C)=O)CSSC[C@@H](C(N)=O)NC(=O)[C@@H]2CCCN2C(=O)[C@H](CC(C)C)NC(=O)CNC1=O
- IC50 [1]: > 50 µM
- IC50 (His-tagged PCSK9Δhelix): 0.97 µM

B6: Compound 72 (Ac-CRLPWNLQAIGLPC-NH2) (peptide)
peptide: Ac-CRLPWNLQAIGLPC-NH2
modifications: disulfide 1-14
SMILES: CC[C@H](C)[C@@H]1NC(=O)[C@H](C)NC(=O)[C@H](CCC(N)=O)NC(=O)[C@H](CC(C)C)NC(=O)[C@H](CC(N)=O)NC(=O)[C@H](Cc2c[nH]c3ccccc23)NC(=O)[C@@H]2CCCN2C(=O)[C@H](CC(C)C)NC(=O)[C@H](CCCNC(=N)N)NC(=O)[C@@H](NC(C)=O)CSSC[C@@H](C(N)=O)NC(=O)[C@@H]2CCCN2C(=O)[C@H](CC(C)C)NC(=O)CNC1=O
- IC50 [1]: > 50 µM
- IC50 (His-tagged PCSK9Δhelix): 39.6 µM

B7: Compound 68 (Ac-CRLPWNLQRIGLAC-NH2) (peptide)
peptide: Ac-CRLPWNLQRIGLAC-NH2
modifications: disulfide 1-14
SMILES: CC[C@H](C)[C@@H]1NC(=O)[C@H](CCCNC(=N)N)NC(=O)[C@H](CCC(N)=O)NC(=O)[C@H](CC(C)C)NC(=O)[C@H](CC(N)=O)NC(=O)[C@H](Cc2c[nH]c3ccccc23)NC(=O)[C@@H]2CCCN2C(=O)[C@H](CC(C)C)NC(=O)[C@H](CCCNC(=N)N)NC(=O)[C@@H](NC(C)=O)CSSC[C@@H](C(N)=O)NC(=O)[C@H](C)NC(=O)[C@H](CC(C)C)NC(=O)CNC1=O
- IC50 [1]: > 50 µM
- IC50 (His-tagged PCSK9Δhelix): 0.939 µM

B8: Compound 67 (Ac-CRLPWNLKRIGLPC-NH2) (peptide)
peptide: Ac-CRLPWNLKRIGLPC-NH2
modifications: disulfide 1-14
SMILES: CC[C@H](C)[C@@H]1NC(=O)[C@H](CCCNC(=N)N)NC(=O)[C@H](CCCCN)NC(=O)[C@H](CC(C)C)NC(=O)[C@H](CC(N)=O)NC(=O)[C@H](Cc2c[nH]c3ccccc23)NC(=O)[C@@H]2CCCN2C(=O)[C@H](CC(C)C)NC(=O)[C@H](CCCNC(=N)N)NC(=O)[C@@H](NC(C)=O)CSSC[C@@H](C(N)=O)NC(=O)[C@@H]2CCCN2C(=O)[C@H](CC(C)C)NC(=O)CNC1=O
- IC50 [1]: > 50 µM
- IC50 (His-tagged PCSK9Δhelix): 0.699 µM

B9: Compound 69 (Ac-CRLPWNLQRIGAPC-NH2) (peptide)
peptide: Ac-CRLPWNLQRIGAPC-NH2
modifications: disulfide 1-14
SMILES: CC[C@H](C)[C@@H]1NC(=O)[C@H](CCCNC(=N)N)NC(=O)[C@H](CCC(N)=O)NC(=O)[C@H](CC(C)C)NC(=O)[C@H](CC(N)=O)NC(=O)[C@H](Cc2c[nH]c3ccccc23)NC(=O)[C@@H]2CCCN2C(=O)[C@H](CC(C)C)NC(=O)[C@H](CCCNC(=N)N)NC(=O)[C@@H](NC(C)=O)CSSC[C@@H](C(N)=O)NC(=O)[C@@H]2CCCN2C(=O)[C@H](C)NC(=O)CNC1=O
- IC50 [1]: > 50 µM
- IC50 (His-tagged PCSK9Δhelix): 6.64 µM

B10: Compound 73 (Ac-CRLPWNLARIGLPC-NH2) (peptide)
peptide: Ac-CRLPWNLARIGLPC-NH2
modifications: disulfide 1-14
SMILES: CC[C@H](C)[C@@H]1NC(=O)[C@H](CCCNC(=N)N)NC(=O)[C@H](C)NC(=O)[C@H](CC(C)C)NC(=O)[C@H](CC(N)=O)NC(=O)[C@H](Cc2c[nH]c3ccccc23)NC(=O)[C@@H]2CCCN2C(=O)[C@H](CC(C)C)NC(=O)[C@H](CCCNC(=N)N)NC(=O)[C@@H](NC(C)=O)CSSC[C@@H](C(N)=O)NC(=O)[C@@H]2CCCN2C(=O)[C@H](CC(C)C)NC(=O)CNC1=O
- IC50 [1]: > 50 µM
- IC50 (His-tagged PCSK9Δhelix): 0.915 µM

B11: Compound 71 (Ac-CRLPWNLQRAGLPC-NH2) (peptide)
peptide: Ac-CRLPWNLQRAGLPC-NH2
modifications: disulfide 1-14
SMILES: CC(=O)N[C@H]1CSSC[C@@H](C(N)=O)NC(=O)[C@@H]2CCCN2C(=O)[C@H](CC(C)C)NC(=O)CNC(=O)[C@H](C)NC(=O)[C@H](CCCNC(=N)N)NC(=O)[C@H](CCC(N)=O)NC(=O)[C@H](CC(C)C)NC(=O)[C@H](CC(N)=O)NC(=O)[C@H](Cc2c[nH]c3ccccc23)NC(=O)[C@@H]2CCCN2C(=O)[C@H](CC(C)C)NC(=O)[C@H](CCCNC(=N)N)NC1=O
- IC50 [1]: > 50 µM
- IC50 (His-tagged PCSK9Δhelix): 49.5 µM

B12: Compound 70 (Ac-CRLPWNLQRIALPC-NH2) (peptide)
peptide: Ac-CRLPWNLQRIALPC-NH2
modifications: disulfide 1-14
SMILES: CC[C@H](C)[C@@H]1NC(=O)[C@H](CCCNC(=N)N)NC(=O)[C@H](CCC(N)=O)NC(=O)[C@H](CC(C)C)NC(=O)[C@H](CC(N)=O)NC(=O)[C@H](Cc2c[nH]c3ccccc23)NC(=O)[C@@H]2CCCN2C(=O)[C@H](CC(C)C)NC(=O)[C@H](CCCNC(=N)N)NC(=O)[C@@H](NC(C)=O)CSSC[C@@H](C(N)=O)NC(=O)[C@@H]2CCCN2C(=O)[C@H](CC(C)C)NC(=O)[C@H](C)NC1=O
- IC50 [1]: > 50 µM
- IC50 (His-tagged PCSK9Δhelix): 7.26 µM

B13: Compound 22 (Ac-GSG-CWNLKRIGSQGC-NH2) (peptide)
peptide: Ac-GSGCWNLKRIGSQGC-NH2
modifications: disulfide 4-15
SMILES: CC[C@H](C)[C@@H]1NC(=O)[C@H](CCCNC(=N)N)NC(=O)[C@H](CCCCN)NC(=O)[C@H](CC(C)C)NC(=O)[C@H](CC(N)=O)NC(=O)[C@H](Cc2c[nH]c3ccccc23)NC(=O)[C@@H](NC(=O)CNC(=O)[C@H](CO)NC(=O)CNC(C)=O)CSSC[C@@H](C(N)=O)NC(=O)CNC(=O)[C@H](CCC(N)=O)NC(=O)[C@H](CO)NC(=O)CNC1=O
- IC50 [1]: 42 µM and > 50 µM

B14: Compound 115 (Ac-CRLPWNLQRI-(Ape)-C-NH2) (peptide)
peptide: Ac-CRLPWNLQRI[Ava]C-NH2
modifications: disulfide 1-12
SMILES: CC[C@H](C)[C@@H]1NC(=O)[C@H](CCCNC(=N)N)NC(=O)[C@H](CCC(N)=O)NC(=O)[C@H](CC(C)C)NC(=O)[C@H](CC(N)=O)NC(=O)[C@H](Cc2c[nH]c3ccccc23)NC(=O)[C@@H]2CCCN2C(=O)[C@H](CC(C)C)NC(=O)[C@H](CCCNC(=N)N)NC(=O)[C@@H](NC(C)=O)CSSC[C@@H](C(N)=O)NC(=O)CCCCNC1=O
- IC50 [1]: > 50 µM

B15: Compound 86 (Ac-CRLPWNLQR-(Aoc)-C-NH2) (peptide)
peptide: Ac-CRLPWNLQR[Aoc]C-NH2
modifications: disulfide 1-11
SMILES: CC(=O)N[C@H]1CSSC[C@@H](C(N)=O)NC(=O)CCCCCCCNC(=O)[C@H](CCCNC(=N)N)NC(=O)[C@H](CCC(N)=O)NC(=O)[C@H](CC(C)C)NC(=O)[C@H](CC(N)=O)NC(=O)[C@H](Cc2c[nH]c3ccccc23)NC(=O)[C@@H]2CCCN2C(=O)[C@H](CC(C)C)NC(=O)[C@H](CCCNC(=N)N)NC1=O
- IC50 [1]: > 50 µM

B16: Compound 30 (Ac-SG-CRLPWNLQRIGLPC-NH2) (peptide)
peptide: Ac-SGCRLPWNLQRIGLPC-NH2
modifications: disulfide 3-16
- IC50 [1]: > 50 µM
- IC50 (His-tagged PCSK9Δhelix): 0.95 µM

B17: Compound 31 (Ac-CFIPWNLQRIGLLC-NH2) (peptide)
peptide: Ac-CFIPWNLQRIGLLC-NH2
modifications: disulfide 1-14
SMILES: CC[C@H](C)[C@@H]1NC(=O)[C@H](CCCNC(=N)N)NC(=O)[C@H](CCC(N)=O)NC(=O)[C@H](CC(C)C)NC(=O)[C@H](CC(N)=O)NC(=O)[C@H](Cc2c[nH]c3ccccc23)NC(=O)[C@@H]2CCCN2C(=O)[C@H]([C@@H](C)CC)NC(=O)[C@H](Cc2ccccc2)NC(=O)[C@@H](NC(C)=O)CSSC[C@@H](C(N)=O)NC(=O)[C@H](CC(C)C)NC(=O)[C@H](CC(C)C)NC(=O)CNC1=O
- IC50 [1]: > 50 µM
- IC50 (His-tagged PCSK9Δhelix): 2.4 µM
